Measurements published in publication PMC3898874.
“And” between values parts separate entries of the source, which are not always exact repeats. Equal values may be shown once.

Target: T1, FLAG-tagged STAT1 (signal transducer and activator of transcription 1), P42224
T1 chain: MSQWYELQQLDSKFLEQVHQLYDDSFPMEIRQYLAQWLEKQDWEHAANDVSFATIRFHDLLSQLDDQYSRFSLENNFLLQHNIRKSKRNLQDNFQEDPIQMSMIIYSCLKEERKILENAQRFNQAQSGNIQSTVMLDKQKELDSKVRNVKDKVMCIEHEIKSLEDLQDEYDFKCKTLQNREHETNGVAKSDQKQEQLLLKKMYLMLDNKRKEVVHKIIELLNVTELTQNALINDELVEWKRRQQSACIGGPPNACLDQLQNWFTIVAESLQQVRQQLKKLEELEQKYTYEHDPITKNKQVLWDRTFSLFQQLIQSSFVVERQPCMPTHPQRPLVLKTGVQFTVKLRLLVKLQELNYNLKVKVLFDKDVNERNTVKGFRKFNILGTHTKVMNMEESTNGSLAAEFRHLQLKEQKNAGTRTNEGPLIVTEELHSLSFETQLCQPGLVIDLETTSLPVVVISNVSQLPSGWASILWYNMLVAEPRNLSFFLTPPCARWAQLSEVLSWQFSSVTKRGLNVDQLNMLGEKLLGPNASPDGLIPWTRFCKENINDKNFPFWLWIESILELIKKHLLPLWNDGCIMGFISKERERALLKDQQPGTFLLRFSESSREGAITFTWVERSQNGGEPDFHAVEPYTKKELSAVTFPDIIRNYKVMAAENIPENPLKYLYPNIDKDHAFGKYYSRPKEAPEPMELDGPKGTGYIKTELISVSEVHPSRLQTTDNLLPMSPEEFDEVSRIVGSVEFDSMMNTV
Experiment: co-IP; anti-FLAG M2 immunoprecipitation (protein A/G PLUS agarose, 4°C) from soluble whole-cell extracts (500 μg protein) of co-transfected HEK293T cells, untreated or treated 1 h with 50 U/ml IFNγ; extraction and wash buffer with 280 mM NaCl, 0.5% NP-40, 50 mM Tris/HCl pH 7.4; quantitative blots with anti-GFP and anti-β-arrestin1; control IP without FLAG-tagged STAT1
Conditions: remark: other sources report otherwise

- fold stronger co-precipitation with FLAG-tagged STAT1 than β-arrestin1-GFP (signals normalised to inputs): 3 fold and 6 fold
B1: FLAG-tagged STAT1 (signal transducer and activator of transcription 1), P42224 1-750 (natural protein)
chain: T1 chain
